These results are taken from the supplement of paper PMC9170038.

The data set has as its system MS2 coat protein. As to the kind of experiment: apparent KD of MS2 coat protein; designed switch direction (-1 OFF switch, 1 ON switch): 1; higher = weaker reporter binding. The method in brief: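 The apparent KD reported per design is the median over clusters of curve fits to normalised cluster fluorescence. The RNA switches were transcribed on Illumina chips by stalled E. coli RNA polymerase. SNAP-549-labelled MS2 coat protein was titrated from 0.7 or 1.5 nM, doubling up to 3 µM, in Tris-HCl pH 7.5 buffer containing KCl, MgCl2, BSA, DTT, tRNA and Tween-20, with no input, 200 uM small-molecule ligand, or an oligonucleotide input.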

The mark [1] stands for this setting: Eterna round: R95, input ligand: FMN 200 uM.
[2] abbreviates: Eterna round: R95, input ligand: microRNA oligo, concentration not stated.
Setting [3] is: Eterna round: R95, input ligand: none.
Where [4] appears, read: input ligand: microRNA oligo, concentration not stated.

In the case of “AAGGGAUGAGCGUAGGAUAUAGGAGAAGUGACAUGAGGAUCACCCAUGUAAAAGGAGGGAUGAGACUAGAAGGACGAGGUAGGAG [JR_SS2_Sub059] (puzzle: Same State 2)”, the “apparent KD of MS2 coat protein” value turned out to be 132 nM under setting [1], 84.6 nM under setting [2] and 91.5 nM under setting [3].
For the sequence “UGGCUGGUGCUAGGAUAUGCAUGAGGCAUCCUCGUAGAAGGAGCACGACAUGAGGAUCACCCAUGUAGCCGUCCGUAGACGGCU [salish99_SSNG1_r04_010] (Eterna round: R96, puzzle: Same State NG 1)”, the “apparent KD of MS2 coat protein” value runs as follows: (input ligand: FMN 200 uM) 673 nM; under setting [4], 348 nM; (input ligand: none) 1060 nM.
The like results for “GGAGCCGGCCUAGGAUAUUUCAUAAAACAACAUGAGGAUCACCCAUGUAGGCCAGAAGGCCUUGGGAAGAAGGAGGUCGGCUCC [Loop Effect - C28] (Eterna round: R96, puzzle: Same State NG 2)” were, in that order, 10.2 nM, 19.7 nM and 28.4 nM.
For the sequence “UUGGGUUUGCGAGGAUAUCGUUUGUGAUUUGAUCGAGAAGGCGCUAUUUAAAUUAUUUUAACAUUACAUGAGGAUCACCCAUGU [JR_SSNG1_Sub022] (Eterna round: R96, puzzle: Same State NG 1)”, the “apparent KD of MS2 coat protein” value under setting [4] came out at 14.8 nM.
For the sequence “CGUCGUUUGAUAGGAUAUCGCUUUACAUGAGGAUCGCCCAUGUUUACCACGCUGGUUUUUCUUUCCGAGAAGGAUUCUGAUGUU [salish99_SSNG02_r04_027] (Eterna round: R96, puzzle: Same State NG 2)”, the “apparent KD of MS2 coat protein” value was determined as 28.4 nM (input ligand: FMN 200 uM), 10.5 nM under setting [4] and 4.85 nM (input ligand: none).
In the case of “CGAUGAAACAAAGGAAGAAGAGUUGAAGUACAUGAGGAUCACCCAUGUCAGAGCUUUUUGCUCGUCAUGAACAGGAA [JR_SHM208a_Sub004] (puzzle: Sensor for hsa-mir-208a)”, the “apparent KD of MS2 coat protein” value came to 35.9 nM under setting [1], 24.4 nM under setting [2] and 54.9 nM under setting [3].
As for “UAGAUUCACGUAGGAUAUCGACCUACAUGAGGAUCACCCAUGUUUUUGAAUAGAUUUUUUUGUUACGAGAAGGACGUUAUGUAU [JR_SSNG2_Sub064] (Eterna round: R96, puzzle: Same State NG 2)”, the “apparent KD of MS2 coat protein” value reads like this: (input ligand: FMN 200 uM) 133 nM; under setting [4], 177 nM; (input ligand: none) 268 nM.
Consider “GAAAAGGCAACGCAGGAUAUGAAAGGUGAAACAUGAGGAUCACCCAUGUGCUACCUUCCGAUAAAUCAGAAGGGCGACGCCUAAA [Usbemaus] (puzzle: Same State 2)”, for which the “apparent KD of MS2 coat protein” value stood at 9.33 nM under setting [1], 8.96 nM under setting [2] and 11.1 nM under setting [3].
Regarding “AAACUGGAGGACAAGGAUAUGUGCUCUACGACAUGAGGAUCACCCAUGUGAGACGUAGUAGUGAAACAGAAGGUGUCCUAUUGUA [Tiarri] (Eterna round: R96, puzzle: Same State 2)”, the “apparent KD of MS2 coat protein” value under setting [4] stood at 14.2 nM.
In the case of “GGUAAGAAUUAAGGAUAUUGAAUACAUAUGUUUAACAUGAGGAUCACCCAUGUGGGUUGCGGUGUCGAGAAGGUAAAUUAAUAG [Mat - same State NG 2 - JL mod - D100] (Eterna round: R96, puzzle: Same State NG 2)”, the “apparent KD of MS2 coat protein” value stood at 262 nM (input ligand: FMN 200 uM), 166 nM under setting [4] and 305 nM (input ligand: none).
For the sequence “AGUCCAGCCUGAGCUGGACAAAAGCAUGUACAUGAGGAUCACCCAUGUCAUGUACAAGCUUUUUGCUCGUCAUAAAA [Mat - hsa-mir-208a - Mod of JL - D8] (puzzle: Sensor for hsa-mir-208a)”, the “apparent KD of MS2 coat protein” value runs as follows: under setting [1], 578 nM; under setting [2], 14.7 nM; under setting [3], 651 nM.
Regarding “AGUCCAGCCUAAGCUGGACAAAAGCAUGUACAUGAGGAUCACCCAUGUUCAUGUACAAGCUUUUUGCAAGUCAAAAG [Mat - hsa-mir-208a - Mod of JL - 76] (puzzle: Sensor for hsa-mir-208a)”, the “apparent KD of MS2 coat protein” value under setting [1] amounted to 350 nM, the “apparent KD of MS2 coat protein” value under setting [2] was determined as 28.1 nM and the “apparent KD of MS2 coat protein” value under setting [3] came out at 664 nM.
Regarding “AAUUAUUAACAUGAGGAUCACCCAUGUAUUAUUAUUAACAAGCUUUGCUCUACAUGGGUGCUCGUCUUAUUUAUUAA [AthenaIerokomos] (puzzle: Sensor for hsa-mir-208a version 2)”, the “apparent KD of MS2 coat protein” value runs as follows: under setting [1], 13.7 nM; under setting [2], 68.6 nM; under setting [3], 32.5 nM.
With “ACAUGAGGAUCACCCAUGUAUGCUCAGGAAACUGUGCAACGUGAGGAUAUGGAUCCUAAUUGGAUCCAGAAGGCAUGAAUUAUU [Fiskers NG3ss - 23] (Eterna round: R96, puzzle: Same State NG 3)”, the “apparent KD of MS2 coat protein” value runs as follows: (input ligand: FMN 200 uM) 41.5 nM; under setting [4], 170 nM; (input ligand: none) 418 nM.
The like results for “ACAAGCUUUUCUGUAUUGAAAGGUGGGAUACAUGAGGAUCACCCAUGUUUUUUUGUUUAUUUUUUUCCUCGUCUUAU [JR_SHM208A_Sub088] (Eterna round: R96, puzzle: Sensor for hsa-mir-208a)” were, in that order, 46 nM, 36.5 nM and 37.2 nM.
The like results for “UUAAUUAAUUAAUUAUACAUGAGGAUCACCCAUGUAAGUGAUCAGGAUAUCAGCUCGAUUAGAGCUGAGAAGGGAUACAUGUAA [SSNG3/13-A2] (Eterna round: R96, puzzle: Same State NG 3)” were, in that order, 142 nM, 164 nM and 191 nM.
Consider “UCUUGGUUUUUGCUCGUUUUUUGUGUUGAACAUGAGGAUCACCCAUGUAUUGUACGGUCCGGUUUGAUAGUGGUCCG [JMF 15] (puzzle: Sensor for hsa-mir-208a)”, for which the “apparent KD of MS2 coat protein” value reads like this: under setting [1], 26.3 nM; under setting [2], 16.2 nM; under setting [3], 31.3 nM.
The like results for “AGUCCAGCCUAAGCUGGACAAAAGCAUGUACAUGAGGAUCACCCAUGUUCAUGUACAAGCUUUUUGCUCGUCAAAAG [Mat - hsa-mir-208a - Mod of JL - 68] (puzzle: Sensor for hsa-mir-208a)” were, in that order, 194 nM, 19.6 nM and 242 nM.
For the sequence “GGAGGAUGAGCGUAGGAUAUAGGAGGAGUGACAUGAGGAUCACCCAUGUGGUAGGAGGGAGGGUACUAGAAGGACGAGGAAGAGG [JR_SS2_Sub070] (puzzle: Same State 2)”, the “apparent KD of MS2 coat protein” value came to 54.6 nM under setting [1], 64.5 nM under setting [2] and 74.5 nM under setting [3].
Take “GGAGAACAUGAGGAUCACCCAUGUGGAUGAGCGCUAGGAUAUGCGGGAGGGUGAAGAGAAGCAGAAGGAGUAGAUA [JR_SS1_Sub034] (puzzle: Same State 1)”: the “apparent KD of MS2 coat protein” value by setting is: under setting [1], 63.9 nM; under setting [2], 99.6 nM; under setting [3], 180 nM.
On to “AGAUCAUGACGAGGAUAUGGUACAUGAGGAUCACCCAUGUAUGUACUAUAAUCCGAAUGAGGAAUCCAGAAGGCGUCGUGGUCA [JL SSNG2 1.14] (Eterna round: R96, puzzle: Same State NG 2)”, for which the “apparent KD of MS2 coat protein” value runs as follows: (input ligand: FMN 200 uM) 44.9 nM; under setting [4], 94.1 nM; (input ligand: none) 145 nM.
As to “GAGAGAUGGUUAGGAUAUUCGGUGAUAAUGAUAGAAGAAGGAACUGACAUGAGGAUCACCCAUGUGGGAAUAAUCCAGAGAGAG [Parity 20 - Jieux - Same State NG 1] (Eterna round: R96, puzzle: Same State NG 1)”, the “apparent KD of MS2 coat protein” value runs as follows: (input ligand: FMN 200 uM) 103 nM; under setting [4], 85 nM; (input ligand: none) 107 nM.
For the sequence “AGAUCAUGACGAGGAUAUGGUACAUGAGGAUCACCCAUGUAUGUACCACGACGCGUACGUCGAAUCCAGAAGGCGUCGUGGUCA [JL SSNG2 1.07] (Eterna round: R96, puzzle: Same State NG 2)”, the “apparent KD of MS2 coat protein” value reads like this: (input ligand: FMN 200 uM) 23.3 nM; under setting [4], 27.7 nM; (input ligand: none) 41.6 nM.
For “AGUCCAGCAAGAGCUGGACAAAAGCAUGUACAUGAGGAUCACCCAUGUUCAUGUACAAGCUUUUUGCUCGUCAAAAG [Mat - hsa-mir-208a - Mod of JL - 72] (puzzle: Sensor for hsa-mir-208a)”, the “apparent KD of MS2 coat protein” value is, setting by setting: under setting [1], 216 nM; under setting [2], 19.9 nM; under setting [3], 318 nM.
The corresponding values for “UUAAGCCACGGGCAGGAUAUGUAUUAAUAUACAUGAGGAUCACCCAUGUGCAGGUGUAACACCUGACAGAAGGGCCAAUCGCGGC [Soondi - 5] (puzzle: Same State 2)” are 35 nM, 177 nM and 286 nM.
For the sequence “GGUGCCAAAUAAGCCUACAUGAGGAUCACCCAUGUAUGUAGGUAGGAUAUCGUAUGCAAAGCAUACGAGAAGGGCCUAGGCACC [Mat - Same State NG 3 - JL Mod - D60] (Eterna round: R96, puzzle: Same State NG 3)”, the “apparent KD of MS2 coat protein” value turned out to be 18.1 nM (input ligand: FMN 200 uM), 37.3 nM under setting [4] and 60.7 nM (input ligand: none).
The corresponding values for “GGCCUCUGUCAAGGAUAUGCUACCGUUUCGGUAGCAGAAGGUGAUCACAUGCGGGUCACCCAUGUUUAGGCCCUCUGGCCCGCC (Eterna round: R96, puzzle: Same State NG 1)” are 19.1 nM, 10.2 nM and 18.6 nM.
With “AACAAUCUAUCUGAGGAUAUCAUGAAAAAAACAUGAGGAUCACCCAUGUGCAGGAAAACUGCAUAUGAGAAGGCAGAUAGAUUGU [salish99_SS2_r3_002] (Eterna round: R96, puzzle: Same State 2)”, the “apparent KD of MS2 coat protein” value under setting [4] stood at 480 nM.
